One test concerns the target HLA-A*80:01. Kind of test: IEDB peptide-MHC binding, purified MHC/direct/fluorescence; filed as Kd, often an IC50 or EC50 that approximates it; ≥ and ≤ were set here for values at or beyond the usual limits of such assays.
Test [1] concerns the target HLA-A*01:01. The test is described as above.
The target of test [2] is HLA-A*29:02. The description is as above. The conditions noted are these: source organism: Mammarenavirus juninense.
Test [3] addresses HLA-A*02:01. The test is described as follows: IEDB peptide-MHC binding, purified MHC/competitive/radioactivity; filed as Kd, often an IC50 or EC50 that approximates it; ≥ and ≤ were set here for values at or beyond the usual limits of such assays.
In test [4] the target is HLA-A*02:03. The description is as above. Conditions: source organism: Dengue virus 2 Jamaica/1409/1983.
The target in the next test is HLA-A*02:06. Described as above.
The target in a further test is HLA-A*02:17. The test is described as above.
The target in test [5] is HLA-A*68:02. The test is described as above.
Test [6] concerns the target HLA-A*29:02. The test is described as follows: IEDB peptide-MHC binding, purified MHC/competitive/fluorescence; filed as Kd, often an IC50 or EC50 that approximates it; ≥ and ≤ were set here for values at or beyond the usual limits of such assays.
The target in test [7] is HLA-A*01:01. The test is described as follows: IEDB peptide-MHC binding, purified MHC/competitive/radioactivity; filed as Kd, often an IC50 or EC50 that approximates it; ≥ and ≤ were set here for values at or beyond the usual limits of such assays. The conditions noted are these: source organism: Dengue virus 4 Philippines/H241/1956.
In test [8] the target is HLA-A*02:01. Kind of test: IEDB peptide-MHC binding, purified MHC/competitive/fluorescence; filed as Kd, often an IC50 or EC50 that approximates it; ≥ and ≤ were set here for values at or beyond the usual limits of such assays.
The target of the next test is HLA-A*02:12. The test is described as above.
The target in test [9] is HLA-A*02:03. Described as above.
The target in a further test is HLA-B*39:01. The test is described as above.
A further test has as its target HLA-A*69:01. The description is as above.
A further test deals with HLA-A*02:11. Described as above.
The target in a further test is HLA-B*27:03. Described as above.
A further test concerns the target HLA-A*02:19. The test is described as above.
The next test deals with HLA-B*46:01. The test is described as above.
In a further test the target is HLA-B*15:01. The description is as above.
A further test has as its target HLA-A*02:16. The description is as above.
A further test concerns the target HLA-A*24:03. Described as above.
The target in the next test is HLA-A*26:01. Described as above.
The target of a further test is HLA-B*15:17. The description is as above. Conditions: source organism: Entamoeba histolytica HM-1:IMSS.
The next test concerns the target HLA-A*03:01. The description is as above. The conditions noted are these: source organism: Entamoeba histolytica HM-1:IMSS.
The target of another test is HLA-B*51:01. The description is as above.
In the next test the target is HLA-B*18:01. The description is as above.
Another test has as its target HLA-B*57:01. The description is as above.
The target in test [10] is HLA-A*68:02. Described as above.
Another test addresses HLA-A*31:01. Described as above. The conditions noted are these: source organism: Cryptosporidium parvum Iowa II.
[11] abbreviates: source organism: Mammarenavirus juninense.
[12] abbreviates: source organism: Dengue virus 2 Jamaica/1409/1983.
[13] abbreviates: source organism: Dengue virus 4 Philippines/H241/1956.
Setting [14] is: source organism: Yersinia pestis.
Where [15] appears, read: source organism: Escherichia coli O157:H7.
Where [16] appears, read: source organism: Mammarenavirus lassaense.
Where [17] appears, read: source organism: Entamoeba histolytica HM-1:IMSS.
Where [18] appears, read: source organism: Cryptosporidium parvum Iowa II.

In the case of VSDRPVMRY, the figures for the Kd with HLA-A*80:01 (setting [11]), in the test with HLA-A*01:01 [1] (setting [11]) and with HLA-A*29:02 [2] were 360 nM, 185 nM and 117 nM, respectively.

Consider TMTDDIGMGV, for which the Kd with HLA-A*02:01 [3] (setting [12]) was determined as 21.3 nM; in the test with HLA-A*02:03 [4] it was 7.59 nM; in the test with HLA-A*02:06 (setting [12]) it was 5.64 nM; with HLA-A*02:17 (setting [12]) it was 313 nM; with HLA-A*68:02 [5] (setting [12]) it was 116 nM.

In turn, LAIDRDDLY yielded a Kd with HLA-A*29:02 [6] (source organism: Mycobacterium tuberculosis variant bovis BCG str. Pasteur 1173P2) of 5.3 nM.

With MTLWYMWQV, the Kd in the test with HLA-A*02:01 [3] (setting [13]) was found to be 13.7 nM; in the test with HLA-A*02:06 (setting [13]) it was 2.67 nM; with HLA-A*02:17 (setting [13]), 27.4 nM; with HLA-A*68:02 [5] (setting [13]) it was 11.3 nM.

Take DLRPYGLIK: the Kd with HLA-A*80:01 (setting [14]) and with HLA-A*01:01 [1] (setting [14]) was at least 20000 nM throughout.

As for RVIRTVREK, the dissociation constant Kd in the test with HLA-A*80:01 (setting [15]) and with HLA-A*01:01 [1] (setting [15]) was at least 20000 nM in each case.

FIDGISLGL: the Kd with HLA-A*02:01 [3] (setting [13]) was 18.9 nM; with HLA-A*01:01 [7], 1520 nM; with HLA-A*02:06 (setting [13]), 32.4 nM; with HLA-A*02:17 (setting [13]) it was 56.1 nM.

Consider YVVIAILTV, for which the Kd turned out to be 254 nM in the test with HLA-A*02:01 [3] (setting [12]), 12.4 nM in the test with HLA-A*02:06 (setting [12]), 509 nM with HLA-A*02:17 (setting [12]) and 26.3 nM in the test with HLA-A*68:02 [5] (setting [12]).

Consider DTPGERNPY, for which the Kd in the test with HLA-A*80:01 (setting [16]) and with HLA-A*01:01 [1] (setting [16]) was at least 20000 nM throughout.

Regarding IEAKINVAD, the Kd with HLA-A*02:01 [8] (setting [17]), with HLA-A*02:12 (setting [17]), with HLA-A*02:03 [9] (setting [17]), with HLA-B*39:01 (setting [17]), with HLA-A*69:01 (setting [17]) and with HLA-A*02:11 (setting [17]) was at least 20000 nM each time. Besides, the Kd with HLA-B*27:03 (setting [17]), in the test with HLA-A*29:02 [6] (setting [17]), with HLA-A*02:19 (setting [17]), in the test with HLA-B*46:01 (setting [17]), with HLA-B*15:01 (setting [17]) and with HLA-A*02:16 (setting [17]) was at least 20000 nM each time. In addition, the Kd with HLA-A*24:03 (setting [17]) was at least 20000 nM; with HLA-A*26:01 (setting [17]), at least 20000 nM; with HLA-B*15:17 it was at least 20000 nM; with HLA-A*03:01, at least 20000 nM; with HLA-B*51:01 (setting [17]) it was at least 20000 nM; in the test with HLA-B*18:01 (setting [17]), 389 nM. The Kd with HLA-B*57:01 (setting [17]) and with HLA-A*68:02 [10] (setting [17]) was at least 20000 nM throughout.

In the test with HLA-A*80:01 (source organism: Dengue virus 1 Singapore/S275/1990), AIDLDPVVY yielded a Kd of at least 5000 nM.

As for RGRKPIFRK, the Kd with HLA-A*02:01 [8] (setting [18]), with HLA-A*02:12 (setting [18]), in the test with HLA-A*02:03 [9] (setting [18]), with HLA-B*39:01 (setting [18]), in the test with HLA-A*69:01 (setting [18]) and with HLA-A*02:11 (setting [18]) was at least 20000 nM in each case. The Kd with HLA-B*27:03 (setting [18]), with HLA-A*29:02 [6] (setting [18]), with HLA-A*02:19 (setting [18]), in the test with HLA-B*46:01 (setting [18]), with HLA-B*15:01 (setting [18]) and with HLA-A*02:16 (setting [18]) was at least 20000 nM throughout. Moreover, the equilibrium dissociation constant (Kd) with HLA-A*31:01 was 53.2 nM; with HLA-A*24:03 (setting [18]) it was at least 20000 nM; with HLA-A*26:01 (setting [18]), at least 20000 nM; with HLA-B*51:01 (setting [18]), at least 20000 nM; with HLA-B*18:01 (setting [18]), at least 20000 nM; with HLA-B*57:01 (setting [18]), at least 20000 nM. The same sequence came in with a dissociation constant Kd with HLA-A*68:02 [10] (setting [18]) of at least 20000 nM.

With MVLAFITFL, the Kd with HLA-A*02:01 [3] (setting [13]) was 16.9 nM; with HLA-A*02:06 (setting [13]) it was 3.45 nM; in the test with HLA-A*02:17 (setting [13]) it was 3.99 nM; with HLA-A*68:02 [5] (setting [13]), 19.2 nM.

These data come from the Immune Epitope Database (IEDB).
